# Values quoted from earlier work in publication PMC4465285.
# Key:
# [1] = molecular target: F-actin (Saccharomyces cerevisiae) (UniProt P60010); assay: fluorescence titration and cosedimentation
# [2] = molecular target: F-actin (Oryctolagus cuniculus) (UniProt P68135)
Kd [1] [µM],Kd [2] [µM],Substance
0.016,–,Cofilin-1 (from UniProt P23528)
–,0.2,Drebrin 1-300 (from UniProt Q16643)
